# Experimental data from publication PMC11138481 (Molecular cell, 2023).
# Ends that are not written are not given here. * marks the point of attachment. Crotonyl(E) = C/C=C/C(=O)*
# Legend:
# [1] = molecular target: GFP-GAS41 H43S protein (recombinant) (human, UniProt O95619 1-227, H43S); assay: MST
# [2] = molecular target: GAS41 YEATS domain (residues 11–150) (human, UniProt O95619 11-150); assay: ITC
# Sequence of GAS41 YEATS domain (residues 11–150) (O95619 11-150): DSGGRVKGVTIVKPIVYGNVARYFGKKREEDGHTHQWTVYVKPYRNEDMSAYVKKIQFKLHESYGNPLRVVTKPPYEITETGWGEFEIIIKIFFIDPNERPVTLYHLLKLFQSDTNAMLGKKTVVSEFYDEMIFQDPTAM
# Sequence of GFP-GAS41 H43S protein (recombinant) (O95619 whole entry H43S, the tested form may be a part): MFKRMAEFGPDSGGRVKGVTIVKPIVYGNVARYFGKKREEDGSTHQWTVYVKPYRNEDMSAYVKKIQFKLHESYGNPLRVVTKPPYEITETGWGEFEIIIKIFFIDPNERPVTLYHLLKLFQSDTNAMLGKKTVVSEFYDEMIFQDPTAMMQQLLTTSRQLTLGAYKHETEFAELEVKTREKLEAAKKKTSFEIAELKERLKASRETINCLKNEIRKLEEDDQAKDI
fold reduction in binding against GAS41 wt [1],Kd [2],Binder
6 fold,22.9 µM,ATKAARK(Crotonyl(E))SAPATG [Synthesized H3 K27cr (a.a. 21-33) peptide]
~2 fold,51.5 µM,ATKAARK(Ac)SAPATG [Synthesized H3 K27ac (a.a. 21-33) peptide]
